These results are taken from the supplement of paper PMC10567573.

A short description of this series: protein stability index of a GFP-peptide fusion (GPS, HEK-293T) (PSI 1-6); higher = more stable.
Setting [1] is: treatment: DMSO, c terminus: a fixed tail appended.
[2] abbreviates: treatment: MLN4924 1 uM, 8 h, c terminus: a fixed tail appended.
[3] abbreviates: treatment: DMSO, c terminus: native.
Where [4] appears, read: treatment: MLN4924 1 uM, 8 h, c terminus: native.

± gives the standard deviation.
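Also: 24-mer peptide tiles fused after GFP, lentivirally expressed, FACS-sorted into six equal bins by GFP/DsRed ratio, decoded by Illumina sequencing, PSI is the read-weighted mean bin number.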

As for KWNTQTKARSYSYPHCTGISQQDP [ZC2HC1C], the protein stability index by setting is: under setting [1], 3.33 ± 0.34; under setting [2], 3.63 ± 0.38.
Turning to FFEKPDYDYLRKLFTDLFDRKGYM [CSNK1G3], the protein stability index came to 2.05 ± 0.58 under setting [1] and 2.5 ± 0.25 under setting [2].
MPCTWVMACAYAPSGCAIACGGLD [GNB5]: the protein stability index reads like this: under setting [1], 2.77 ± 0.53; under setting [2], 2.88 ± 0.4.
Taken in the same sequence, the figures for LTEIYRIVSQKQMSDRRENDMSPS [RAB11A] were 3.54 ± 0.2 and 3.81 ± 0.12.
The matching figures for VLNVAGEAGGKQKAVEEELDAEDR [SLC6A17]: 5.72 ± 0.17 and 5.69 ± 0.16.
Consider ESIDFDQGELADQDVDPVHNLIEQ [FBXO33], for which the protein stability index is, setting by setting: under setting [1], 5.51 ± 0.16; under setting [2], 5.22 ± 0.26.
PSAELVQTRMAVSLTAAETLALQG [ZNF232]: the protein stability index runs as follows: under setting [1], 3.45 ± 0.35; under setting [2], 3.23 ± 0.23.
Sequence GKTAASWCLHVNNWLQVSFTAKHA [FSD1] showed a protein stability index under setting [1] of 3.23 ± 0.46 and a protein stability index under setting [2] of 3.09 ± 0.76.
On to GSKYYNVEAMYCYLRCIQSEVSFE [SMG5], for which the protein stability index reads like this: under setting [1], 3.05 ± 0.94; under setting [2], 2.1 ± 0.68.
For DKERAVLLQRRKRENMSDGDTSAT [KMT2E], the protein stability index under setting [1] turned out to be 5.27 ± 0.062 and the protein stability index under setting [2] turned out to be 5.39 ± 0.19.
In the case of PARAGSEVEWTEDLALDLGPQSRE [C2CD2L], the protein stability index by setting is: under setting [1], 5.24 ± 0.23; under setting [2], 5.31 ± 0.23.
EYHQPQAPANVAKIQLRLAGQKRK [LOXL2]: the protein stability index is, setting by setting: under setting [1], 4.34 ± 0.43; under setting [2], 4.54 ± 0.4.
In the case of LTEAEGWHFFCFQGEATRKLAGK [SAT2], the protein stability index by setting is: under setting [3], 2.69 ± 0.29; under setting [4], 3.02 ± 0.49.
Turning to FVTGNCLEISPDCSQYDRVYCGAG [PCMTD2], the protein stability index by setting is: under setting [1], 2.43 ± 0.19; under setting [2], 2.33 ± 0.14.
For QSLDQEILLKVKTEIEEELKSLDK [BCL2L13], the protein stability index reads like this: under setting [1], 4.51 ± 0.42; under setting [2], 4.93 ± 0.24.
Turning to GLANGLQLLCPWAPLSGPQALMLP [VENTX], the protein stability index was 2.01 ± 0.31 under setting [1] and 2.1 ± 0.36 under setting [2].
Regarding HLADLVSYSIQKVIGFAKMIPGFR [VDR], the protein stability index by setting is: under setting [1], 4.2 ± 0.43; under setting [2], 4.18 ± 0.25.
Turning to LSRENIQSSLLETLYRNRSNLETI [PPEF2], the protein stability index runs as follows: under setting [1], 2.83 ± 0.39; under setting [2], 2.64 ± 0.33.
The matching figures for QAIFHAVDQYLALPDVSLGRYAYV [MCOLN1]: 3.16 ± 0.59 and 2.68 ± 0.31.
As to LCVNYFFYGETVADYFATFVQREE [CDS1], the protein stability index under setting [1] was 3.4 ± 0.68 and the protein stability index under setting [2] turned out to be 2.61 ± 0.99.
As to LTHFSRRYCQCNPDDSTSEDGIHT [PSD2], the protein stability index was determined as 3.6 ± 0.27 under setting [1] and 3.77 ± 0.3 under setting [2].
Turning to ILSGKFTILNVRDPTGASIALFTA [PTPN9], the protein stability index under setting [1] stood at 2.84 ± 0.73 and the protein stability index under setting [2] turned out to be 3.19 ± 0.74.
ERSMSENAVRQNGQLVRNDSLWHR [MFF] came in with a protein stability index under setting [1] of 3.84 ± 0.42 and a protein stability index under setting [2] of 3.69 ± 0.4.
Consider SGNMLGRHFFTSWASCLQYDFDTQ [WDFY1], for which the protein stability index came out at 2.47 ± 0.53 under setting [1] and 2.11 ± 0.12 under setting [2].
Taken in the same sequence, the figures for ASNWSTTGFGQGQGYTINVPWNQV [HDAC6] were 2.14 ± 0.47 and 2.22 ± 0.43.
Consider CPWHYLHLSGSHNTLAPTCFKAKL [RSPH3], for which the protein stability index amounted to 2.35 ± 0.23 under setting [1] and 2.59 ± 0.13 under setting [2].
Taken in the same sequence, the figures for TQCSEEDQCKINKQIYNLIHLDPR [FEM1B] were 3.48 ± 0.12 and 3.4 ± 0.28.
Regarding LDSSLASLVGNLGISGTTTKKGDL [SNAP91], the protein stability index is, setting by setting: under setting [1], 4.76 ± 0.24; under setting [2], 4.73 ± 0.19.
On to SEVESAVWYVKKFGRYLEHLEVKF [FBXO39], for which the protein stability index runs as follows: under setting [1], 2.44 ± 0.22; under setting [2], 2.47 ± 0.43.
Consider DKLDGNELDLSLSDLNEVPVKELA [LRRC59], for which the protein stability index is 5.26 ± 0.093 under setting [1] and 5.34 ± 0.33 under setting [2].
The matching figures for GIKVQNGGIVTDTPASNHLPGWED [SLC19A2]: 4.4 ± 0.23 and 4.77 ± 0.28.
Consider NCSDFLESKGCFANTTPSGKSVSS [SPATS1], for which the protein stability index was found to be 4.15 ± 0.2 under setting [1] and 4.35 ± 0.17 under setting [2].
On to RFRSCNTEDCPTGSALTFREEQCA [ADAMTS4], for which the protein stability index was 3.75 ± 0.3 under setting [1] and 4.24 ± 0.27 under setting [2].
For TLFKKIQALQKEKETLAVNYEKEE [CCDC6], the protein stability index runs as follows: under setting [1], 3.52 ± 0.27; under setting [2], 3.35 ± 0.086.
Turning to VNYTQGLWEKVMPSRYAAIYNGGV [SLC19A2], the protein stability index was 2.33 ± 0.18 under setting [1] and 2.21 ± 0.47 under setting [2].
As to VLKYFSHYMEENLMDGGDLPSVTD [PLK2], the protein stability index is, setting by setting: under setting [1], 2.75 ± 0.52; under setting [2], 2.67 ± 0.64.
On to SGLRGGILIELAMRGRIYLEPPTM [GOLPH3L], for which the protein stability index by setting is: under setting [1], 3.09 ± 0.41; under setting [2], 2.74 ± 0.76.
For LVSPSNNSKEDAFSGTDWMLEKMD [ATF4], the protein stability index reads like this: under setting [1], 4.66 ± 0.26; under setting [2], 4.64 ± 0.23.
Take FCSVIRINSTAPFEEQENYFLLCD [ZNF277]: the protein stability index runs as follows: under setting [1], 2.46 ± 0.7; under setting [2], 1.83 ± 0.15.
As to IVAVIDSAQLQELVCHVMMGNLVM [INTS3], the protein stability index is 3.25 ± 0.72 under setting [1] and 3.05 ± 0.55 under setting [2].
As to EEALENGPKESLPVIAAPSMWTRP [ACBD3], the protein stability index stood at 4.64 ± 0.12 under setting [1] and 4.47 ± 0.24 under setting [2].
Regarding PGEVVPSGESGLRRRGSDPASGEV [TMEM40], the protein stability index by setting is: under setting [1], 5.52 ± 0.32; under setting [2], 5.43 ± 0.23.
For GLETLFSKAQELGGAGREDPGLWS [ZSWIM9], the protein stability index runs as follows: under setting [1], 3.18 ± 0.5; under setting [2], 3.39 ± 0.23.
FICQATGDPRPKIVWNKKGKKVSN [PTPRD]: the protein stability index was 2.84 ± 0.37 under setting [1] and 3.35 ± 0.68 under setting [2].
Taken in the same sequence, the figures for LEVKIHDWYQKQTPTSPECDYSQY [KRT15] were 2.81 ± 0.3 and 2.94 ± 0.25.
On to HEEERINIYCLNCEVPTCSLCKVF [TRIM55], for which the protein stability index came to 2.95 ± 0.39 under setting [1] and 3.16 ± 0.32 under setting [2].
Sequence SEQEHFLIVPFGLLYSEVTASSLV [ADD1] came in with a protein stability index under setting [1] of 2.65 ± 0.57 and a protein stability index under setting [2] of 2.92 ± 0.68.
In the case of EKRSRGQVLFDKVCEHLNLLEKDY [EPB41L3], the protein stability index reads like this: under setting [1], 2.87 ± 0.46; under setting [2], 3.01 ± 0.62.
Regarding AGISRSPTICMAYLMKTKQFRLKE [DUSP5], the protein stability index stood at 2.21 ± 0.3 under setting [1] and 2.13 ± 0.24 under setting [2].
Regarding VYSVSVDQKERCIIVRTTNKKYYK [DPCD], the protein stability index under setting [1] is 2.14 ± 0.14 and the protein stability index under setting [2] stood at 2.21 ± 0.38.
ATSATSHTRSLNSIIHQMEKFSSS [FBF1] had a protein stability index under setting [1] of 3.34 ± 0.28 and a protein stability index under setting [2] of 3.59 ± 0.39.
Taken in the same sequence, the figures for DKDDEEKPKIEDVGSDEEDDSGKD [HSP90AB1] were 5.57 ± 0.34 and 5.54 ± 0.062.
PKPSVLFLHPDLGVGGAERLVLDA [ALG2]: the protein stability index is 3.23 ± 0.29 under setting [1] and 3.15 ± 0.23 under setting [2].
LANLSRTQLLHLGLTQGLIERLK [KLHDC10] gave a protein stability index under setting [3] of 2.38 ± 0.53 and a protein stability index under setting [4] of 2.35 ± 0.18.
The sequence NKKNILLRLLREEEYVAPPRGPLP [TRAF3IP2] came in with a protein stability index under setting [1] of 2.44 ± 0.25 and a protein stability index under setting [2] of 3.06 ± 0.54.
As for CADVPLLTPSSKEMMSQALKATFS [ETS1], the protein stability index was 2.79 ± 0.2 under setting [1] and 2.66 ± 0.3 under setting [2].
As for PVPAFQSDGTDEPESKEPVEKEEE [SMG5], the protein stability index runs as follows: under setting [1], 5.57 ± 0.24; under setting [2], 5.56 ± 0.24.
For the sequence YVKFDAVSGDYYPIIYFNDYWNLQ [CLPTM1], the protein stability index by setting is: under setting [1], 2.78 ± 0.5; under setting [2], 2.8 ± 0.64.
For the sequence SSVYKQQWFAMLRAEQDSEVGPQE [GMCL1], the protein stability index worked out at 4.08 ± 0.37 under setting [1] and 4.16 ± 0.24 under setting [2].
For EAQLSLIRDIRRRGKNKMAAQNCR [NFE2L1], the protein stability index is, setting by setting: under setting [1], 3.61 ± 0.35; under setting [2], 3.58 ± 0.22.
On to ILSGARVNAKDNMWLTPLHRAVAS [ANKRD44], for which the protein stability index was found to be 2.34 ± 0.1 under setting [1] and 2.4 ± 0.27 under setting [2].
Regarding YRHVMLPKDIAKLVPKTHLMSESE [CKS1B], the protein stability index reads like this: under setting [1], 3.75 ± 0.32; under setting [2], 3.85 ± 0.23.
The matching figures for SFTQGEGARPLSTRVPRAAIVFTD [MATN2]: 3.5 ± 0.38 and 3.55 ± 0.12.
As for GTTYLPGIVGLNNIKANDYANAVL [USP39], the protein stability index reads like this: under setting [1], 2.47 ± 0.097; under setting [2], 2.44 ± 0.23.
As to RRMCFVDPVRQCAECALVSLKEAE [ZFYVE21], the protein stability index is, setting by setting: under setting [1], 2.98 ± 0.25; under setting [2], 3.01 ± 0.64.
Regarding VPHWINSNTLGFGTEQAPYGMQTQ [ETS2], the protein stability index was determined as 2.58 ± 0.41 under setting [1] and 2.88 ± 0.22 under setting [2].
As for SPGLSYASHTVGFTPPTSLTRAGM [CCDC6], the protein stability index worked out at 3.01 ± 0.12 under setting [1] and 3.37 ± 0.31 under setting [2].
As to CGYFQVVNYTQGLWEKVMPSRYAA [SLC19A2], the protein stability index by setting is: under setting [1], 2.7 ± 0.79; under setting [2], 2.46 ± 0.41.
Take VTEHPLELIRVEVEILDLNDNSPS [PCDHGC5]: the protein stability index reads like this: under setting [1], 2.92 ± 0.29; under setting [2], 3 ± 0.41.
Turning to FAQRTFDYELLQMLQIVVGVRDSG [PCDHGC5], the protein stability index is, setting by setting: under setting [1], 3.01 ± 0.53; under setting [2], 2.74 ± 0.84.
In the case of DLALDLGPQSRELTLKVLRSSSCG [C2CD2L], the protein stability index runs as follows: under setting [1], 3.28 ± 0.18; under setting [2], 3.62 ± 0.34.
On to EEERAFWMENNGHVAGEQMLEDGP [CCDC70], for which the protein stability index is, setting by setting: under setting [1], 5.37 ± 0.35; under setting [2], 5.2 ± 0.45.
